These results are taken from patent US20020049303A1.

This experiment deals with recombinant memapsin 2 (M2pd), auto-activated from pro-M2pd at pH 4.0 (human) (UniProt P56817). Nature of the experiment: cell-based or functional assay.
recombinant memapsin 2 (M2pd), auto-activated from pro-M2pd at pH 4.0 (human), sequence (P56817 25-419 limits assumed): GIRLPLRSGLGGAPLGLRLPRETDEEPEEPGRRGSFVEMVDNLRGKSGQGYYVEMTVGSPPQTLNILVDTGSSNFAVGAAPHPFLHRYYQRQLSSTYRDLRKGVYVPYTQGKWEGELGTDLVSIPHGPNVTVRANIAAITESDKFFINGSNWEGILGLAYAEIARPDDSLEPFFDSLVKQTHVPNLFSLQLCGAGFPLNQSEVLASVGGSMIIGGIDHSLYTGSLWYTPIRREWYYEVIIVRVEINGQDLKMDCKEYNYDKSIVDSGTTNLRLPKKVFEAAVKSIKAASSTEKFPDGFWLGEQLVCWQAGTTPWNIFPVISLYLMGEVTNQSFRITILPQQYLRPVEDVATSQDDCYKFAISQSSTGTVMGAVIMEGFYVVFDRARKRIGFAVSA

For the substance Pepstatin A (peptide), the inhibition of M2pd activity (IC50) was 300 µM.
